In the data set the test system is MS2 coat protein. Kind of data set: apparent KD of MS2 coat protein; designed switch direction (-1 OFF switch, 1 ON switch): 1; higher = weaker reporter binding. The essentials: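 The apparent KD reported per design is the median over clusters of curve fits to normalised cluster fluorescence. The RNA switches were transcribed on Illumina chips by stalled E. coli RNA polymerase. SNAP-549-labelled MS2 coat protein was titrated from 0.7 or 1.5 nM, doubling up to 3 µM, in Tris-HCl pH 7.5 buffer containing KCl, MgCl2, BSA, DTT, tRNA and Tween-20, with no input, 200 uM small-molecule ligand, or an oligonucleotide input.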

[1] abbreviates: input ligand: microRNA oligo, concentration not stated.
The mark [2] stands for this setting: Eterna round: R95, input ligand: microRNA oligo, concentration not stated.
Setting [3] is: Eterna round: R95, input ligand: FMN 200 uM.
Where [4] appears, read: Eterna round: R95, input ligand: none.

Turning to “AGAUGUUAAUUAGGAUAUGGACACAUGAGGAUCACCCAUGUAACGAAGAUACGAUGUGGUCAAGUCUAGAAGGGAUAGCUAACA [SameState NG2 #75] (Eterna round: R96, puzzle: Same State NG 2)”, the “apparent KD of MS2 coat protein” value is 0.0399 µM (input ligand: FMN 200 uM), 0.0273 µM under setting [1] and 0.039 µM (input ligand: none).
“ACAUGAGACAAAGGAUAUGGUGUACCUACAUGUGACAUGAGGAUCACCCAUGUGGUAAGUAUGACUCAGAAGGUUGAGAUAUGU [Equivalance 74 - Jieux - Same State NG 2] (Eterna round: R96, puzzle: Same State NG 2)”: the “apparent KD of MS2 coat protein” value runs as follows: (input ligand: FMN 200 uM) 0.037 µM; under setting [1], 0.203 µM; (input ligand: none) 0.299 µM.
As for “GAUUCACAUGAGGAUCACCCAUGUCGUAAUAUGGGAGGAUAUACGUGGACCGUAGUCCGCGUAGAAGGCCUAAUUG [Mat - Same State 1 - Mod of JL - D25] (puzzle: Same State 1)”, the “apparent KD of MS2 coat protein” value under setting [2] was determined as 0.148 µM.
As for “AGUCCUGAAAAGAAAAUACAGAGAGAUGUACAUGAGGAUCACCCAUGUCAUGUACAAGUUCUAUGCUCGUCAUAUAA [Sensorship 22 - Jieux - Sensor for hsa-mir-208a] (puzzle: Sensor for hsa-mir-208a)”, the “apparent KD of MS2 coat protein” value reads like this: under setting [3], 0.51 µM; under setting [2], 0.106 µM; under setting [4], 0.617 µM.
As for “AGGCUCAGACGAGGAUAUGAUCAUGGCGCUUCGGCGCAUACAUGAGGAUCACCCAUGUAGGGUGAUCAGAAGGCGUCUGAGCCA [SSNG2/8-A1] (Eterna round: R96, puzzle: Same State NG 2)”, the “apparent KD of MS2 coat protein” value (input ligand: FMN 200 uM) turned out to be 0.0421 µM, the “apparent KD of MS2 coat protein” value under setting [1] worked out at 0.225 µM and the “apparent KD of MS2 coat protein” value (input ligand: none) is 0.314 µM.
Consider “GCGCAGCUGAGUGAGGAUAUCGGUGGUAAAACAUGAGGAUCACCCAUGUCCGAAGCUCGGACUUCCGAGAAGGCACCCGGCUGCA [Inisusbeor] (puzzle: Same State 2)”, for which the “apparent KD of MS2 coat protein” value under setting [3] was determined as 0.0119 µM, the “apparent KD of MS2 coat protein” value under setting [2] stood at 0.0474 µM and the “apparent KD of MS2 coat protein” value under setting [4] was found to be 0.0735 µM.
As for “UAUCCAUAGAUAGGAUAUUAGAGAACAUGAGGAUCACCCAUGUUUGGCUUGGUUUUAAGCUAAUCUGAGAAGGAUCUUGAUGAA [SameState NG2 #8] (Eterna round: R96, puzzle: Same State NG 2)”, the “apparent KD of MS2 coat protein” value runs as follows: (input ligand: FMN 200 uM) 0.0855 µM; under setting [1], 0.185 µM; (input ligand: none) 0.119 µM.
Take “GGAAUAUUUACAGGAUAUGAGUUGUAAAGUCGAUCAGAAGGGUAGAUGUCUUACACGGUUUGUUACAUGAGGAUCACCCAUGUU [SameState NG1 #18] (Eterna round: R96, puzzle: Same State NG 1)”: the “apparent KD of MS2 coat protein” value reads like this: (input ligand: FMN 200 uM) 0.0669 µM; under setting [1], 0.0756 µM; (input ligand: none) 0.0866 µM.
Take “CGCAUCAUUGUUACAUGAGGAUCACCCAUGUUUUCGAGUGGAGAGGAUAUCGUAACAGUAUAAAUCGAGAAGGCUCUAUAGUAU [JR_SSNG3_Sub082] (Eterna round: R96, puzzle: Same State NG 3)”: the “apparent KD of MS2 coat protein” value was determined as 0.0341 µM (input ligand: FMN 200 uM), 0.0771 µM under setting [1] and 0.0816 µM (input ligand: none).
As for “CUGCAACAUGAGGAUCACCCAUGUAACCCAAUUAUAGGAUAUGUGAUGGUGAUCGACAUGACAGAAGGGUGAUUGG [Arinra] (puzzle: Same State 1)”, the “apparent KD of MS2 coat protein” value under setting [3] amounted to 0.199 µM, the “apparent KD of MS2 coat protein” value under setting [2] amounted to 0.0994 µM and the “apparent KD of MS2 coat protein” value under setting [4] is 0.0464 µM.
On to “GGUAGGUUACUACCAGACAUGAGGAUCACCCAUGUAAGUGGGAAGGAUAUGGUACCUUUUAGGUACCAGAAGGUCCAUAUAUUC [JL SSNG3 1.44] (Eterna round: R96, puzzle: Same State NG 3)”, for which the “apparent KD of MS2 coat protein” value is 0.178 µM (input ligand: FMN 200 uM), 0.637 µM under setting [1] and 0.849 µM (input ligand: none).
Turning to “AAUUCACGAGCACAGGAUAUGCUUGCCAACACAUGAGGAUCACCCAUGUCGGGCUACUAAUAAGAGCAGAAGGGUGACUCAUGAU [Esticece] (puzzle: Same State 2)”, the “apparent KD of MS2 coat protein” value by setting is: under setting [3], 0.0366 µM; under setting [2], 0.342 µM; under setting [4], 0.0582 µM.
On to “GUGCUCGUGUAAGGAUAUGCUUCCGUUUCGGCUGCAGAAGGUACUAUUAUACAUGAGGAUCACCCAUGUCUCUUUUGUUUGGUG [salish99_SSNG1_r04_909] (Eterna round: R96, puzzle: Same State NG 1)”, for which the “apparent KD of MS2 coat protein” value runs as follows: (input ligand: FMN 200 uM) 0.0891 µM; under setting [1], 0.0555 µM; (input ligand: none) 0.0879 µM.
The matching figures for “AAUUAAGAUCAAGGAUAUCACGUCGUUUAGACGUGAGAAGGUGAUAAUUACAUGAGGAUCACCCAUGUAUAACAUGAAUUAAUU [SSNG1/9-B3] (Eterna round: R96, puzzle: Same State NG 1)”: 0.0255 µM, 0.0275 µM and 0.0321 µM.
Turning to “GGACGUCACAUUAACAUGAGGAUCACCCAUGUCAAAAGACAUGAGGAUAUGGAUCCUAAUUGGAUCCAGAAGGCAUGGACGUCC [Fiskers NG3ss - 39] (Eterna round: R96, puzzle: Same State NG 3)”, under setting [1], the “apparent KD of MS2 coat protein” value was found to be 0.373 µM.
As to “AGAAAACAUGAGGAUCACCCAUGUAGAAAUAUGGGAGGAUAUACAAAGACGAAAGUCAAGGUAGAAGGCCUAAAGA [Mat - Same State 1 - Meechl mod - D124] (Eterna round: R96, puzzle: Same State 1)”, the “apparent KD of MS2 coat protein” value is, setting by setting: (input ligand: FMN 200 uM) 0.0196 µM; under setting [1], 0.0704 µM; (input ligand: none) 0.0987 µM.
For “GCUAGAAAUAAAGCCAACAUGAGGAUCACCCAUGUAUGUUGGCAGGAUAUCGUUUGCUUUGCAAACGAGAAGGGCCAAACUAGC [Mat - Same State NG 3 - JL Mod - D1] (Eterna round: R96, puzzle: Same State NG 3)”, the “apparent KD of MS2 coat protein” value runs as follows: (input ligand: FMN 200 uM) 0.057 µM; under setting [1], 0.127 µM; (input ligand: none) 0.129 µM.
Regarding “UUUCCAUAGAUAGGAUAUCAGUUUACAUGAGGAUCACCCAUGUUCUCUUUGGUUAUAAUUAUAUCUGAGAAGGAUCUUGAUGAA [JR_SSNG2_Sub002] (Eterna round: R96, puzzle: Same State NG 2)”, the “apparent KD of MS2 coat protein” value under setting [1] is 0.0204 µM.
Consider “AACAAUCUAUCUGAGGAUAUCAUGUCAAAGACAUGAGGAUCACCCAUGUACCAGGAAACUGGAUAUGAGAAGGCAGAUAGAUUGA [SS2: 1119] (Eterna round: R96, puzzle: Same State 2)”, for which the “apparent KD of MS2 coat protein” value by setting is: (input ligand: FMN 200 uM) 0.0166 µM; under setting [1], 0.08 µM; (input ligand: none) 0.162 µM.
For the sequence “AAGAAACAUGAGGAUCACCCAUGUAAUAAUAUGGGAGGAUAUACAAGGACAAUAGUCAAGGUAGAAGGCCUAAGAA [Mat - Same State 1 - Meechl mod - D142] (Eterna round: R96, puzzle: Same State 1)”, the “apparent KD of MS2 coat protein” value under setting [1] was 0.123 µM.
In the case of “CUUUUUAAUGCAGGAUAUGAUCAACAUGAGGAUCACCCAUGUGGCGUUGUGAGUAGGGAGAGUGAUCAGAAGGGCGUCUCCUCG [SS-NG2-LRO09] (Eterna round: R96, puzzle: Same State NG 2)”, the “apparent KD of MS2 coat protein” value was determined as 0.0439 µM (input ligand: FMN 200 uM), 0.038 µM under setting [1] and 0.0566 µM (input ligand: none).
For “AUUCGUUUGAUAGGAUAUCGCUAUACAUGAGGAUCACCCAUGUUUACCACGCUGGUUUUUCGUACCGAGAAGGAUUCUGAUGAU [JL JR sub007 mod 3] (Eterna round: R96, puzzle: Same State NG 2)” the same measures were 0.0354 µM, 0.0273 µM and 0.0414 µM.
For the sequence “GCACAUGAGGAUCACCCAUGUGCGAGAAAGACGGACCGGAUACAGGAUAUGCGCGAACGGAAGACGCAGAAGGGUGACCAAAAC [Anmaed] (Eterna round: R96, puzzle: Same State NG 3)”, the “apparent KD of MS2 coat protein” value (input ligand: FMN 200 uM) was determined as 0.0641 µM, the “apparent KD of MS2 coat protein” value under setting [1] is 0.0382 µM and the “apparent KD of MS2 coat protein” value (input ligand: none) came out at 0.0406 µM.
As for “GUUCGUUUGAUAGGAUAUCGCUUAACAUGAGGAUCACCCAUGUUUACCACGCUGGUUUUUCGUACCGAGAAGGAUUCUGAUGAU [JL JR sub007 mod 1] (Eterna round: R96, puzzle: Same State NG 2)”, the “apparent KD of MS2 coat protein” value stood at 0.0379 µM (input ligand: FMN 200 uM), 0.0436 µM under setting [1] and 0.0471 µM (input ligand: none).
Consider “GAUACACAUGAGGAUCACCCAUGUCGUAUGACAUGAGGAUAUGUACAGACUUCGGUCUGUACAGAAGGCAUGUGUC [SS1 - 1011 Omei Mod 2] (puzzle: Same State 1)”, for which the “apparent KD of MS2 coat protein” value under setting [2] came out at 0.0483 µM.
In the case of “UACAAUCUAUCUGAGGAUAUCAUGAAGAAAACAUGAGGAUCACCCAUGUGCAGGAUAACUGCAAAUGAGAAGGCAGAUAGAUUGU [Mat - Same State 2 - Mod - D5] (puzzle: Same State 2)”, the “apparent KD of MS2 coat protein” value came to 0.00819 µM under setting [3], 0.0185 µM under setting [2] and 0.018 µM under setting [4].
For “GUGCUCGUGUGAGGAUAUGCUUCCGGUUCGGCUGCAGAAGGUACUAUUAUACAUGAGGAUCACCCAUGUCGCUUUUCUCCGGUG [salish99_SSNG1_r04_916] (Eterna round: R96, puzzle: Same State NG 1)”, the “apparent KD of MS2 coat protein” value (input ligand: FMN 200 uM) turned out to be 0.0283 µM, the “apparent KD of MS2 coat protein” value under setting [1] was 0.0176 µM and the “apparent KD of MS2 coat protein” value (input ligand: none) worked out at 0.025 µM.
The matching figures for “UUAUACUAGAGAGGAUAUGCAGAGGAUCACCCUGCAGAAGGCUCAUUAGAGAGGAUAUGCAGAGGAUCACCCUGCAGAAGGCUC [pwkr ssNG DX.21] (Eterna round: R96, puzzle: Same State NG 1)”: 0.0107 µM, 0.0222 µM and 0.0201 µM.

For the origin of these results see the supplement of paper PMC9170038.
